26 sequences from the supplement of paper PMC12764529 can be followed below.

± gives the half width of the 95% confidence interval.

A short description of data set [1]: folding stability dG unfold from trypsin proteolysis; higher = more stable. The essentials:
(§1)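 Mini-proteins designed to be under 80 residues and free of cysteine were carried in a PA-tagged cDNA display construct and digested with trypsin and with chymotrypsin. Each protease was applied at 11 threefold-diluted concentrations, alongside a no-protease condition, before sequencing. K50 came from Bayesian fitting of the sequencing counts, and unfolding free energy was obtained by comparing it with a sequence-predicted unfolded-state K50 and a shared folded-state K50, for each protease separately or for both together. Designs were retained only if their AlphaFold2 dimer inter-PAE exceeded 15.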

Data set [2] in a line: folding stability dG unfold (combined trypsin and chymotrypsin); higher = more stable. The essentials: as §1
A short description of data set [3]: folding stability dG unfold from chymotrypsin proteolysis; higher = more stable. The procedure, abridged: as §1

Take “SAGGSAGGSAGKPKTLEVEMLVLDPETRRLYRVRMEIVLDPEDEGKLTIRLEIEELELPDSAGGSAGGSAGG [r17_241_TrROS_Hall]”: the “folding stability dG unfold” value turned out to be 3.42 ± 0.081 kcal/mol in data set [1], 4.27 ± 0.14 kcal/mol in data set [2] and 4.5 ± 0.096 kcal/mol in data set [3].

In the case of “SAGGSAGGSAGKPKTVEIEVTNEDGSKYKAKVVEVDEEKGYVLIKITNPDGSEQTILIKLSAGGSAGGSAGG [r11_742_TrROS_Hall]”, the “folding stability dG unfold” value is 1.81 ± 0.06 kcal/mol in data set [1], 2.6 ± 0.1 kcal/mol in data set [2] and 2.97 ± 0.033 kcal/mol in data set [3].

For “SAGGSAGGSAGKPKVKKITLKNPATGETVEAEVVEVDGYLVVRVRNKDDPEKTETFVFKLSAGGSAGGSAGG [r17_73_TrROS_Hall]”, the “folding stability dG unfold” value in data set [1] was determined as 2.17 ± 0.051 kcal/mol; in data set [2], 2.48 ± 0.12 kcal/mol; in data set [3] it was 2.58 ± 0.049 kcal/mol.

As to “SAGGSAGGSAGKPVLKLTVTLPNGLTVTVTINPDGEITVEIRPLPPPPPPVRTYSDEELKSAGGSAGGSAGG [r11_1015_TrROS_Hall]”, the “folding stability dG unfold” value in data set [1] worked out at 2.29 ± 0.19 kcal/mol; in data set [2], 2.1 ± 0.31 kcal/mol; in data set [3], 2.75 ± 0.16 kcal/mol.

With “SAGGSAGGSAGKPVTLTDANGTPYSVSQVTTDPNSATVTATFTSPTSSTTHTATYPVTPASAGGSAGGSAGG [r11_290_JUSTAS]”, the entries for the “folding stability dG unfold” value in data set [1], in data set [2] and in data set [3] were 1.03 ± 0.046 kcal/mol, 0.791 ± 0.14 kcal/mol and 0.728 ± 0.13 kcal/mol, respectively.

Consider “SAGGSAGGSAGKRRIYILGMDTVQVAEYLRDTGPDIKVEVFNPGQPMEEFQDNYDIVIFVSAGGSAGGSAGG [r17_225_TrROS]”, for which the “folding stability dG unfold” value in data set [1] stood at 1.59 ± 0.035 kcal/mol; in data set [2], 2.04 ± 0.16 kcal/mol; in data set [3], 2.33 ± 0.1 kcal/mol.

“SAGGSAGGSAGKTIKILLVVKDPETNEYYFLVMEIHLDENGNLHMKIKVFPTKEDAEKALSAGGSAGGSAGG [r11_792_TrROS_Hall]”: the “folding stability dG unfold” value in data set [1] stood at 3.66 ± 0.19 kcal/mol; in data set [2] it was 4.06 ± 0.15 kcal/mol; in data set [3], 4.15 ± 0.085 kcal/mol.

In the case of “SAGGSAGGSAGKTLVFKTKEEALKAIEEEAKKKGYKKVKIEITEVGPDGKVKVKVKIEKKSAGGSAGGSAGG [r17_430_TrROS_Hall]”, the “folding stability dG unfold” value amounted to 0.763 ± 0.047 kcal/mol in data set [1], 1.3 ± 0.19 kcal/mol in data set [2] and 1.34 ± 0.18 kcal/mol in data set [3].

For “SAGGSAGGSAGKTVVIEIKGMSKEQVLNLIKELAEKYPNSKIIITNENGEKIEINVKDLKSAGGSAGGSAGG [r11_541_TrROS_Hall]”, the results for the “folding stability dG unfold” value in data set [1], in data set [2] and in data set [3] were 1.95 ± 0.13 kcal/mol, 2.85 ± 0.22 kcal/mol and 3.34 ± 0.12 kcal/mol, respectively.

For the sequence “SAGGSAGGSAGKTYTLTITTENGKTITLPKDVEVVYDEKTGYLYIKNKKTNKVIKVKLKDSAGGSAGGSAGG [r17_432_TrROS_Hall]”, the “folding stability dG unfold” value in data set [1] stood at 2.13 ± 0.051 kcal/mol; in data set [2], 2.19 ± 0.079 kcal/mol; in data set [3] it was 2.21 ± 0.059 kcal/mol.

Take “SAGGSAGGSAGKVELIETEDKLYLVVEVDGKKEVIEVSKEELEELLAALPPDAKVTILKPSAGGSAGGSAGG [r11_374_TrROS_Hall]”: the “folding stability dG unfold” value in data set [1] was found to be 3.17 ± 0.21 kcal/mol; in data set [2] it was 2.77 ± 0.16 kcal/mol; in data set [3] it was 2.49 ± 0.12 kcal/mol.

As for “SAGGSAGGSAGKVIIIKVPKKDMTPEEVEKLAKELKEKFPDAKITVIEVKKDGYIIIKIDSAGGSAGGSAGG [r11_365_TrROS_Hall]”, the “folding stability dG unfold” value in data set [1] came to 1.91 ± 0.063 kcal/mol; in data set [2], 2.47 ± 0.11 kcal/mol; in data set [3], 2.73 ± 0.079 kcal/mol.

With “SAGGSAGGSAGKWIMFDSPEDIEEKLKENGYRIKNIEPQKMGGGPHVYVPIEIKPPPEDKSAGGSAGGSAGG [r11_141_TrROS]”, the “folding stability dG unfold” value in data set [1] is -0.506 ± 0.54 kcal/mol; in data set [2] it was 0.155 ± 0.38 kcal/mol; in data set [3], 0.43 ± 0.39 kcal/mol.

Regarding “SAGGSAGGSAGKYYIIKYPGKVEIIPESEVEKIIEANPNVEIEEFESKEEALKALEKALSSAGGSAGGSAGG [r11_60_TrMRF]”, the “folding stability dG unfold” value in data set [1] turned out to be 3.95 ± 0.21 kcal/mol; in data set [2], 4.22 ± 0.09 kcal/mol; in data set [3] it was 4.24 ± 0.083 kcal/mol.

In the case of “SAGGSAGGSAGLEALKKALEALPPGEERELEIEVEVDGKLYRFRIRVEKTEDGEYKATIELESAGGSAGGSA [r18_493_TrROS_Hall]”, the “folding stability dG unfold” value amounted to 4.56 ± 0.34 kcal/mol in data set [1], 4.76 ± 0.16 kcal/mol in data set [2] and 4.88 ± 0.084 kcal/mol in data set [3].

As to “SAGGSAGGSAGLEVPPGVPVKIPVVYVDKENDYVIVTELTITPDSGEIFYDPKIIPKKELSAGGSAGGSAGG [r11_468_TrMRF]”, the “folding stability dG unfold” value in data set [1] was found to be 0.251 ± 0.063 kcal/mol; in data set [2], 0.65 ± 0.099 kcal/mol; in data set [3] it was 0.734 ± 0.07 kcal/mol.

On to “SAGGSAGGSAGLFIPETGLLVVYDPAPGTLHVFRITGGDGLEIEPVGEVEVDPDNPELGTAFSAGGSAGGSA [r18_448_TrMRF]”, for which the “folding stability dG unfold” value was -0.284 ± 0.29 kcal/mol in data set [1], 0.327 ± 0.18 kcal/mol in data set [2] and 0.464 ± 0.16 kcal/mol in data set [3].

Turning to “SAGGSAGGSAGLKPEVEALVRVVLKLPEGERVVLVKVKTLEELFELDLPEVVSIEIRPLKSAGGSAGGSAGG [r17_290_TrMRF]”, the “folding stability dG unfold” value in data set [1] was 1.28 ± 0.028 kcal/mol; in data set [2] it was 1.6 ± 0.064 kcal/mol; in data set [3], 1.73 ± 0.049 kcal/mol.

Consider “SAGGSAGGSAGLTFTLPDGTKITIETLEDGSVKIKIETLTPDGKPLEAEFVIPGSHPDEDSAGGSAGGSAGG [r17_471_TrMRF]”, for which the “folding stability dG unfold” value in data set [1] worked out at 3.2 ± 0.15 kcal/mol; in data set [2] it was 3.58 ± 0.13 kcal/mol; in data set [3], 3.76 ± 0.14 kcal/mol.

On to “SAGGSAGGSAGLTLRVKVKVELEYDPETNELTLRVEVEIELFPPPPLVVLSKEQLEELEESAGGSAGGSAGG [r17_454_TrROS_Hall]”, for which the entries for the “folding stability dG unfold” value in data set [1], in data set [2] and in data set [3] were 2.67 ± 0.18 kcal/mol, 3.21 ± 0.39 kcal/mol and 3.65 ± 0.24 kcal/mol, respectively.

With “SAGGSAGGSAGMAEKLPSLSLFYLPETGDLVLIREETYVDPNDPDKSIVKQEIYVLPPEYSAGGSAGGSAGG [r17_241_TrMRF]”, the results for the “folding stability dG unfold” value in data set [1], in data set [2] and in data set [3] were 0.984 ± 0.051 kcal/mol, 1.51 ± 0.096 kcal/mol and 1.74 ± 0.13 kcal/mol, respectively.

For the sequence “SAGGSAGGSAGMDKDGKWRRIPFMFVNPGDGYIFKWEIWIYPGGNIELEMEIIGPIKPGASAGGSAGGSAGG [r11_226_TrROS]”, the entries for the “folding stability dG unfold” value in data set [1], in data set [2] and in data set [3] were 3.13 ± 0.13 kcal/mol, 4.28 ± 0.11 kcal/mol and 4.8 ± 0.061 kcal/mol, respectively.

“SAGGSAGGSAGMEIEEEDGKLRLRLEAEFEVTVTTRNADGSTTETTARVRVELTFELPEESAGGSAGGSAGG [r17_103_TrROS_Hall]”: the “folding stability dG unfold” value in data set [1] amounted to 3.67 ± 0.29 kcal/mol; in data set [2], 3.89 ± 0.22 kcal/mol; in data set [3], 3.89 ± 0.12 kcal/mol.

With “SAGGSAGGSAGMEIEEKGDYLVIRIKVKEGETIELPEGWEVVDVEYDPETEEVTIVIRRKSAGGSAGGSAGG [r11_942_TrROS_Hall]”, the “folding stability dG unfold” value came to 4.38 ± 0.18 kcal/mol in data set [1], 3.9 ± 0.28 kcal/mol in data set [2] and 2.88 ± 0.1 kcal/mol in data set [3].

For “SAGGSAGGSAGMETTDSVITYPDGSVVTVTTLPDGTTRVTTFYPESGLTEEEIVPAAELGSAGGSAGGSAGG [r11_1015_JUSTAS]”, the figures for the “folding stability dG unfold” value in data set [1], in data set [2] and in data set [3] were 1.8 ± 0.086 kcal/mol, 2.19 ± 0.086 kcal/mol and 2.56 ± 0.1 kcal/mol, respectively.

Regarding “SAGGSAGGSAGMEYHLVVVRPPNGEELVLLTDDDPELARRAARELFPGAEVRVEPVVLPESAGGSAGGSAGG [r11_850_TrMRF]”, the “folding stability dG unfold” value turned out to be 0.111 ± 0.034 kcal/mol in data set [1], 0.099 ± 0.077 kcal/mol in data set [2] and 0.0832 ± 0.069 kcal/mol in data set [3].
